In paper PMC9482650, “Quantitative fragmentomics allow affinity mapping of interactomes” (Nature Communications, 2022):
Numbering of substitutions follows the chain as printed.

Legend:
Test in all cases: holdup assay
Set-up in all cases: key: below the threshold = too weak to quantify, mostly under pKd 3.1 to 4
[1] = target: T1, LIN7B, Q9HAP6
T1 sequence (Q9HAP6 88-185, limits assumed, looked up): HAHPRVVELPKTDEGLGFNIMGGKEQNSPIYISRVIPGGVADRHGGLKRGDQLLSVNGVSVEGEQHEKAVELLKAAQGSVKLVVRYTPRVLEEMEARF

[2] = target: T2, LIN7A, O14910
T2 sequence (O14910 103-200, limits assumed, looked up): T1 sequence (Q9HAP6 88-185, limits assumed, looked up) with A2S, I20V, V35I, D42E, Q65H, Q77K, G78D, R89K

[3] = target: T3, RADIL, Q96JH8
T3 sequence (Q96JH8 971-1071, limits assumed, looked up): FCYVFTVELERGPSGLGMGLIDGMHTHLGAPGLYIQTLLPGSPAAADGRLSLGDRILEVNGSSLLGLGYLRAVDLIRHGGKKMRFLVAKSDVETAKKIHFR

[4] = target: Inadl_1, Q8NI35
[5] = target: T4, SNTA1, Q13424
T4 sequence (Q13424 82-180, limits assumed, looked up): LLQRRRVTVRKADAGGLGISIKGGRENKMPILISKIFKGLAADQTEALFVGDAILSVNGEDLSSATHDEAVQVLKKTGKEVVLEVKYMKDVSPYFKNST

[6] = target: T5, TX1BP3, O14907
T5 sequence (O14907 10-122, limits assumed, looked up): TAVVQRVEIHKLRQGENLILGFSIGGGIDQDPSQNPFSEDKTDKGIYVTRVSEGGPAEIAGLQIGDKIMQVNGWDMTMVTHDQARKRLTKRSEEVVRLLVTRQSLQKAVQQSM

[7] = target: PICK1, Q9NRD5
[8] = target: GORASP2, Q9H8Y8
[9] = target: T6, APBA2_1, Q99767
T6 sequence (Q99767 563-664, limits assumed, looked up): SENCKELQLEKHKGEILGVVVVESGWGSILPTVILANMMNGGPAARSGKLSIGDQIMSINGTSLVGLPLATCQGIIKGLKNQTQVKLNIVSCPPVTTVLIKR

[10] = target: DLG5_1, Q8TDM6
[11] = target: T7, DLG3_2, Q92796
T7 sequence (Q92796 221-321, limits assumed, looked up): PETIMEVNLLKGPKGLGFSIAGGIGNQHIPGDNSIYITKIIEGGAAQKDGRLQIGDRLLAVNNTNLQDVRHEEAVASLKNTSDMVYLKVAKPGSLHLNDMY

[12] = target: GRID2IP_2, A4D2P6
[13] = target: TJP1_2, Q07157
[14] = target: T8, SNTG2, Q9NY99
T8 sequence (Q9NY99 68-166, limits assumed, looked up): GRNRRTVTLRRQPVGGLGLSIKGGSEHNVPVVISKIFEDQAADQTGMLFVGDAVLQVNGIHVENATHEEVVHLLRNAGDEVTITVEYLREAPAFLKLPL

[15] = target: CASK, O14936
[16] = target: T9, SNTG1, Q9NSN8
T9 sequence (Q9NSN8 52-150, limits assumed, looked up): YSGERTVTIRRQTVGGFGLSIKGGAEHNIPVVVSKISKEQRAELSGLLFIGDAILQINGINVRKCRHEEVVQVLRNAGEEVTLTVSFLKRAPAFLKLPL

[17] = target: MAST2, Q6P0Q8
[18] = target: T10, PDZRN3_1, Q9UPQ7
T10 sequence (Q9UPQ7 244-349, limits assumed, looked up): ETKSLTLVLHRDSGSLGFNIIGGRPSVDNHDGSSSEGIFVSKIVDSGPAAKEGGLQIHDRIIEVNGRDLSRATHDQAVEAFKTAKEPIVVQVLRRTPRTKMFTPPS

[19] = target: T11, TIAM2, Q8IVF5
T11 sequence (Q8IVF5 885-986, limits assumed, looked up): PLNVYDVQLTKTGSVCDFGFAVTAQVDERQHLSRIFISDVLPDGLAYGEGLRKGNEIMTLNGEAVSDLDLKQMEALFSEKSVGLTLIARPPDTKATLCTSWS

[20] = target: NHERF4_2, Q86UT5
[21] = target: ARHGEF12, Q9NZN5-2
[22] = target: MAGI1_1, Q96QZ7
[23] = target: FRMPD4, Q14CM0
[24] = target: T12, DLG3_1, Q92796
T12 sequence (Q92796 125-227, limits assumed, looked up): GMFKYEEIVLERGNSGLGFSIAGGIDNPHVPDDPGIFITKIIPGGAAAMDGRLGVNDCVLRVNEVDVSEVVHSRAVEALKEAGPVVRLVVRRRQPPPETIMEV

[25] = plain residues with an end cap or a label only (N-terminal biotin on a linker: (peg)3)
[26] = plain residues with an end cap or a label only (N-terminal biotin on a linker: ahx)
[27] = plain residues with an end cap or a label only (N-terminal biotin on a linker: ado-ado)

Sequence of MAGI1_1, Q96QZ7 (Q96QZ7 1-106): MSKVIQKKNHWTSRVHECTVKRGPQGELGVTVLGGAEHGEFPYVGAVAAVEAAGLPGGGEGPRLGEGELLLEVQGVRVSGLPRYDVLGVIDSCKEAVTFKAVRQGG
Sequence of FRMPD4, Q14CM0 (Q14CM0 67-160): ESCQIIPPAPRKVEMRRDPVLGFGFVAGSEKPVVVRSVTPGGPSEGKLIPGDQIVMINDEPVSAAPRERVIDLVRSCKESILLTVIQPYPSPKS
Sequence of TJP1_2, Q07157 (Q07157 181-274): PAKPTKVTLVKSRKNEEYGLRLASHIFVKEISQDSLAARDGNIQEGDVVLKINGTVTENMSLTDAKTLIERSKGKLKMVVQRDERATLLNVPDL
Sequence of Inadl_1, Q8NI35 (Q8NI35 113-229): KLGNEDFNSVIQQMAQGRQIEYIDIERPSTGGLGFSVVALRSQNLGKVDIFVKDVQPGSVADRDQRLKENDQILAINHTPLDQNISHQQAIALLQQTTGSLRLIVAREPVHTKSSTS
Sequence of GRID2IP_2, A4D2P6 (A4D2P6 272-370): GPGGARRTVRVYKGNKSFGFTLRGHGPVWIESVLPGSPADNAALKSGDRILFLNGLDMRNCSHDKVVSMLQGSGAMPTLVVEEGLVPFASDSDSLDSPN
Sequence of ARHGEF12, Q9NZN5-2 (Q9NZN5 other isoform, or with tags, fused parts or gaps): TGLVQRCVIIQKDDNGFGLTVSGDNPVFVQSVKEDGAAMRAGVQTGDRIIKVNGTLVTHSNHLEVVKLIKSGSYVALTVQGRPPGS
Sequence of CASK, O14936 (O14936 487-570): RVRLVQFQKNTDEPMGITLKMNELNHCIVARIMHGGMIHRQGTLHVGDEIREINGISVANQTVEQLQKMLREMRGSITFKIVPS
Sequence of DLG5_1, Q8TDM6 (Q8TDM6 617-713): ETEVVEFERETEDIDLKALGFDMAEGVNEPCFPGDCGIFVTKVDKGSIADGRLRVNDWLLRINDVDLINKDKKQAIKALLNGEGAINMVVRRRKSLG
Sequence of MAST2, Q6P0Q8 (Q6P0Q8 1099-1202): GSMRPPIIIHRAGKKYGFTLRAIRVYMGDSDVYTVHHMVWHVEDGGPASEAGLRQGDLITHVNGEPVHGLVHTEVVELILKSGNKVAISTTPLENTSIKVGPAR
Sequence of PICK1, Q9NRD5 (Q9NRD5 17-115): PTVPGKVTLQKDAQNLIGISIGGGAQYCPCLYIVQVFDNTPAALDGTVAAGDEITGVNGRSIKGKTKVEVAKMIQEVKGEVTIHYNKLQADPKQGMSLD
Sequence of NHERF4_2, Q86UT5 (Q86UT5 220-308): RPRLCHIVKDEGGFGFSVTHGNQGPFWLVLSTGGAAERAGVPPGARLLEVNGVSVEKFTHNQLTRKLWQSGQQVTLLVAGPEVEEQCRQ

RYEDTTLVEDTVL [WNV-NS5, Q9Q6P4]
pKd [1, 25]: below the threshold
pKd [2, 25]: 3.59
pKd [3, 25]: below the threshold
pKd [4, 25]: below the threshold
pKd [5, 25]: 4.14
pKd [6, 25]: below the threshold
pKd [7, 25]: below the threshold
pKd [8, 25]: below the threshold
pKd [9, 25]: below the threshold
pKd [10, 25]: below the threshold
pKd [11, 25]: 3.76
pKd [12, 25]: 3.72
pKd [13, 25]: 3.55
pKd [14, 25]: 4
pKd [15, 25]: below the threshold
pKd [16, 25]: below the threshold
pKd [17, 25]: 5.64
pKd [18, 25]: 3.61
pKd [19, 25]: below the threshold
pKd [20, 25]: below the threshold
pKd [21, 25]: 3.92
pKd [22, 25]: 3.62
pKd [23, 25]: 4.85
pKd [24, 25]: below the threshold

QDEKVKESYV [ABCA1, O95477]
pKd [1, 26]: 4.15
pKd [2, 26]: 3.89
pKd [3, 26]: 4.89
pKd [4, 26]: below the threshold
pKd [5, 26]: 5.9
pKd [6, 26]: 4.74
pKd [7, 26]: 3.76
pKd [8, 26]: 3.75
pKd [9, 26]: below the threshold
pKd [10, 26]: below the threshold
pKd [11, 26]: 4.92
pKd [12, 26]: 3.97
pKd [13, 26]: below the threshold
pKd [14, 26]: 5.06
pKd [15, 26]: below the threshold
pKd [16, 26]: 5.24
pKd [17, 26]: 4.68
pKd [18, 26]: 4.31
pKd [19, 26]: below the threshold
pKd [20, 26]: below the threshold
pKd [21, 26]: 4.27
pKd [22, 26]: below the threshold
pKd [23, 26]: below the threshold
pKd [24, 26]: 4.29

EIPAQSPTCV [FZD10, Q9ULW2]
pKd [1, 27]: below the threshold
pKd [2, 27]: 3.48
pKd [3, 27]: 4.47
pKd [4, 27]: 3.58
pKd [5, 27]: 3.83
pKd [6, 27]: below the threshold
pKd [7, 27]: 3.51
pKd [8, 27]: 3.98
pKd [9, 27]: below the threshold
pKd [10, 27]: 3.71
pKd [11, 27]: 3.88
pKd [12, 27]: 3.67
pKd [13, 27]: 3.78
pKd [14, 27]: 3.85
pKd [15, 27]: 3.59
pKd [16, 27]: 3.83
pKd [17, 27]: 4.01
pKd [18, 27]: below the threshold
pKd [19, 27]: 3.7
pKd [20, 27]: below the threshold
pKd [21, 27]: 3.91
pKd [22, 27]: 3.79
pKd [23, 27]: 3.75
pKd [24, 27]: 3.72
